# Assay results from US20250276075A1, “METHODS OF TREATING AXL-EXPRESSING CANCERS WITH ANTI-AXL ANTIBODIES, ANTIBODY FRAGMENTS AND THEIR IMMUNOCONJUGATES” (BIOATLA, INC., priority 2020, published 2025).
# Where a chain is given by its changes, count along the chain named. Names may count otherwise.
# B1: HC-E102R (antibody, V domains shown)
# VH: EVQLVQSGAEVKKPGATVKISCKVSGYSFTGHTMNWIRQPPGKGLEWIGLIKPSNGGTSYNQKFKGRVTISADKSISTAYLQWSSLKASDTAMYYCAHGHYRSYFAMDYWGQGTLVTVSS
# VL: DIQMTQSPSSLSASVGDRVTITCKASQDVSSAVAWYQQKPGQAPRLLIYWASTRHTGVPSRFSGSGSGTEFTLTISSLQPDDFATYYCQEHFSTPLTFGQGTKVEIK
# B2: LC-P095T (antibody, V domains shown)
# VH: B1 VH with R102E
# VL: B1 VL with P95T
# B3: LC-P095D (antibody, V domains shown)
# VH: B1 VH with R102E
# VL: B1 VL with P95D
# B4: LC-L096G (antibody, V domains shown)
# VH: B1 VH with R102E
# VL: B1 VL with L96G
# B5: LC-L096R (antibody, V domains shown)
# VH: B1 VH with R102E
# VL: B1 VL with L96R
# B6: LC-H091L (antibody, V domains shown)
# VH: B1 VH with R102E
# VL: B1 VL with H91L
# B7: LC-P095C (antibody, V domains shown)
# VH: B1 VH with R102E
# VL: B1 VL with P95C
# B8: LC-P095S (antibody, V domains shown)
# VH: B1 VH with R102E
# VL: B1 VL with P95S
# B9: LC-P095E (antibody, V domains shown)
# VH: B1 VH with R102E
# VL: B1 VL with P95E
# B10: LC-P095K (antibody, V domains shown)
# VH: B1 VH with R102E
# VL: B1 VL with P95K
# B11: LC-H091Q (antibody, V domains shown)
# VH: B1 VH with R102E
# VL: B1 VL with H91Q
# B12: HC-S059I (antibody, V domains shown)
# VH: B1 VH with S59I, R102E
# VL: B1 VL
# B13: LC-P095W (antibody, V domains shown)
# VH: B1 VH with R102E
# VL: B1 VL with P95W
# B14: LC-H091F (antibody, V domains shown)
# VH: B1 VH with R102E
# VL: B1 VL with H91F
# B15: LC-P095H (antibody, V domains shown)
# VH: B1 VH with R102E
# VL: B1 VL with P95H
# B16: LC-H091I (antibody, V domains shown)
# VH: B1 VH with R102E
# VL: B1 VL with H91I
# B17: LC-P095V (antibody, V domains shown)
# VH: B1 VH with R102E
# VL: B1 VL with P95V
# B18: LC-T097I (antibody, V domains shown)
# VH: B1 VH with R102E
# VL: B1 VL with T97I
# B19: LC-H091C (antibody, V domains shown)
# VH: B1 VH with R102E
# VL: B1 VL with H91C
# Target: Axl (UniProt P30530)
# Test: ELISA, 1:3 dilution
# Conditions: not given
row,Molecule,"Affinity ELISA CPE mutant ratio (1:3, pH 6.0/7.4)"
1,B1,3.7
2,B2,2.5
3,B3,3.95
4,B4,2.17
5,B5,2.88
6,B6,2.8
7,B7,2.35
8,B8,2.84
9,B9,7.12
10,B10,3.84
11,B11,1.77
12,B12,30.5
13,B13,2.15
14,B14,1.6
15,B15,2.5
16,B16,1.55
17,B17,1.87
18,B18,3.09
19,B19,4

# Target: T1, Axl (Homo sapiens, UniProt P30530)
# T1 sequence (P30530 26-451 limits assumed): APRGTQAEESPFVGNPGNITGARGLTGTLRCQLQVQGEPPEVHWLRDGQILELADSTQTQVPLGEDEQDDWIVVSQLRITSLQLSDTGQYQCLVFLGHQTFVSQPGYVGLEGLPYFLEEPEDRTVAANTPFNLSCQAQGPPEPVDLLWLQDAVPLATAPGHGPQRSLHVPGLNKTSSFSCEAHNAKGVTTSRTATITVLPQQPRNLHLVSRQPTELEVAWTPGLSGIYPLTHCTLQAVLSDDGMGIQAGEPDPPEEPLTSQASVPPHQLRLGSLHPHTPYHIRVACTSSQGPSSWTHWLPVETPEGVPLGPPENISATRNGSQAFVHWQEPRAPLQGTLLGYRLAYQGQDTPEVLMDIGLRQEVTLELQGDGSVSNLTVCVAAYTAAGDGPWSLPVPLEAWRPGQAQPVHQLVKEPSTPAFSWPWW
# Test: Affinity ELISA of CPE mutant antibodies for binding to Axl at pH 6.0 over pH 7.4
# Conditions: heavy chain variable region mutants; 1:3 dilution
# From the text: The DNA encoding the wild-type antibody was evolved to generate a mutant antibody library using Comprehensive Positional Evolution (CPE), which each position in the template antibody is randomized one at a time. Each mutant antibody in the library has only one single point mutation. The mutant antibodies in the library were generated by simultaneously screening for selective binding affinity to Axl at pH 6.0 over pH 7.4 by ELISA. Two mutant antibody dilutions were used: 1:3 and 1:9 dilutions. The mutant antibodies that have at least 1.5 ratio of binding affinity at pH 6.0 to at pH 7.4 under either 1:3 or 1:9 dilution are selected as conditionally active antibodies, with the single point mutations indicated in each of the heavy chain and light chain variable region (Tables 1 and 2).
# A wild-type antibody to Axl was selected as the template antibody (with a heavy chain variable region of 063-hum10F10-HC in FIG. 1A and a light chain variable region of […]). The DNA encoding the wild-type antibody was evolved to generate a mutant antibody library using Comprehensive Positional Evolution (CPE), a method by which each position in the template antibody is randomized one at a time. Each mutant antibody in the library has only one single point mutation. The mutant antibodies in the library were generated by simultaneously screening for selective binding affinity to Axl at pH 6.0 over pH 7.4 as determined by ELISA.
# Simultaneously, the expression level of the mutant antibodies was also optimized for the purpose of higher fields in a manufacturing process. The screening was done in serum using a FLAG tag because there were human antibodies in the serum which might cause false positives for the screening. The screening buffer was a carbonate buffer (Krebs buffer with ringer-standard buffer but different from PBS). […] Some of the selected mutant antibodies (scFv) were represented in FIG. 2 with their higher activity at pH 6.0 than at pH 7.4, while their activity ratios between pH 6.0 to pH 7.4 were at least 11 fold (FIG. 3).
row,Molecule,"Affinity ELISA CPE mutant ratio (1:3, pH 6.0/7.4)"
1,B1,3.701
2,B12,30.492

# Same assay, conditions: heavy chain variable region mutants; 1:9 dilution
row,Molecule,"Affinity ELISA CPE mutant ratio (1:9, pH 6.0/7.4)"
1,B1,3.416
2,B12,2.055

# Same assay, conditions: light chain variable region mutants; 1:3 dilution
row,Molecule,"Affinity ELISA CPE mutant ratio (1:3, pH 6.0/7.4)"
1,B2,2.497
2,B3,3.949
3,B4,2.165
4,B5,2.876
5,B6,2.798
6,B7,2.350
7,B8,2.841
8,B9,7.121
9,B10,3.840
10,B11,1.770
11,B13,2.148
12,B14,1.603
13,B15,2.504
14,B16,1.550
15,B17,1.871
16,B18,3.086
17,B19,4.003

# Same assay, conditions: light chain variable region mutants; 1:9 dilution
row,Molecule,"Affinity ELISA CPE mutant ratio (1:9, pH 6.0/7.4)"
1,B2,2.086
2,B3,2.889
3,B4,2.436
4,B5,2.176
5,B6,2.081
6,B7,2.630
7,B8,3.512
8,B9,7.511
9,B10,3.468
10,B11,2.010
11,B13,2.263
12,B14,2.116
13,B15,2.754
14,B16,2.154
15,B17,2.132
16,B18,4.049
17,B19,3.025

# Target: Axl (UniProt P30530)
# Test: ELISA, 1:9 dilution
# Conditions: not given
row,Molecule,"Affinity ELISA CPE mutant ratio (1:9, pH 6.0/7.4)"
1,B1,3.42
2,B2,2.09
3,B3,2.89
4,B4,2.44
5,B5,2.18
6,B6,2.08
7,B7,2.63
8,B8,3.51
9,B9,7.51
10,B10,3.47
11,B11,2.01
12,B12,2.06
13,B13,2.26
14,B14,2.12
15,B15,2.75
16,B16,2.15
17,B17,2.13
18,B18,4.05
19,B19,3.02
